Where a SMILES comes first, the peptide text is derived from it. Bridges are numbered along the chain shown (N, C = ends). Where no end group is shown, it is not given here.
How the values were obtained:
[1] = biological target: T1, interaction of SARS-CoV-2 S1 and hACE2 in hACE2-overexpressed HEK293 cells (Severe acute respiratory syndrome coronavirus 2, UniProt P0DTC2); type: cell-based, human
T1 construct: S1 protein-His Tag (AcroBiosystems, S1N-C52H3-100UG, USA); AcroBiosystems (S1 protein) 145033; S1N-C52H3-100UG; host or cells: HEK293

S1 subunit of SARS-CoV-2 = biological target: T2, S1 subunit of SARS-CoV-2 (Severe acute respiratory syndrome coronavirus 2, UniProt P0DTC2); type: binding
T2 construct: ACE2 and S1 subunits of SARS-CoV-2; His Tag; purchased AcroBiosystems S1N-C52H3-100UG

Row | Compound | effect on S1-ACE2 interaction [1] | dependent binding to S1 (S1 subunit of SARS-CoV-2) | effect on membrane localization of S1 [1]
1 | CSNP3 (ENAINFLDKDNHEKEDLFYQ; not fully specified) | completely eliminated the S1-ACE2 interaction | no dependent binding | 
2 | CC[C@H](C)[C@H](NC(=O)[C@H](CCCNC(=N)N)NC(=O)[C@@H]1CSSC[C@H](NC(=O)CNC(=O)CNC(=O)[C@@H]2CCCN2C(=O)[C@H](CO)NC(=O)[C@H](C)NC(=O)[C@H](CC(C)C)NC(=O)[C@H](CO)NC(=O)[C@H](CO)NC(=O)[C@H](CCCCN)NC(=O)[C@H](Cc2ccc(O)cc2)NC(=O)[C@H](Cc2ccccc2)NC(=O)[C@H](CC(C)C)NC(=O)[C@H](CC(=O)O)NC(=O)[C@H](CCC(=O)O)NC(=O)[C@@H]2CCCCNC(=O)C[C@H](NC(=O)[C@H](CCCCN)NC(=O)[C@H](CC(=O)O)NC(=O)[C@H](CC(C)C)NC(=O)[C@H](Cc3ccccc3)NC(=O)[C@H](CC(N)=O)NC(=O)[C@H](C)NC(=O)[C@H](C)NC(=O)[C@H](CCC(N)=O)NC(=O)[C@@H](N)CC(C)C)C(=O)N[C@@H](CC(N)=O)C(=O)N[C@@H](CC(=O)O)C(=O)N[C@@H](CCC(=O)O)C(=O)N2)C(=O)N[C@@H](CC(C)C)C(=O)NCC(=O)N[C@@H](CCCCN)C(=O)NCC(=O)N[C@@H](CC(=O)O)C(=O)N1)C(=O)N[C@@H](CC(C)C)C(=O)O [CSNP2] (H-LQAANFLDKDNDEKEDLFYKSSLASPGGCLGKGDCRIL-OH; lactam 10-14; disulfide 29-35; N-terminus and C-terminus assumed) |  |  | completely blocked the membrane localization of S1

— US20240059741A1, “COMPOSITION FOR PREVENTION OR TREATMENT OF SARS-COV-2 INFECTION” (priority 2020, published 2024)
